We go through five molecules from patent US20070134236A1 (Biogen, published 2007).

The target of test [1] is T1, human fractalkine (human, UniProt P78423 25-100, limits assumed).
T1 sequence (looked up): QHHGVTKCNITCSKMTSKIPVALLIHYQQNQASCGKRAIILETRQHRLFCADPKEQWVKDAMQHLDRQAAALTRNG
The test can be described thus: ELISA, supernatant. On the procedure: (§1) MaxiSorp 384 well plates were coated with 15-20 μl antigen in PBS. Recombinant purified human antigens included: MCP-1, MCP-2, MCP-3, MCP-4, IL-8, eotaxin, fractalkine, Gcp-2, DC-CK (Gcp-2 and DC-CK are also chemokines). Plates were incubated with antigen for 2 hours at 37° C. or overnight at 4° C. Non-specific sites were blocked with 80 μl/well of 1% BSA/PBS for 1 hour at room temperature. Plates were washed and 15 μl of hybridoma supernatant was added to each well and incubated for 1 hour at room temperature. Plates were washed and wells were incubated with 20 μl/well of a 1:25 000 dilution of goat anti-mouse IgG peroxidase conjugate (Jackson Catalog Number 515-036-003). Plates were incubated for 1 hour at room temperature, washed, and 20 μl/well of substrate (TMB, tetramethylbenzidine, Jackson, Catalog Number 515-036-062) was added. Reaction was allowed to proceed and stopped by addition of 20 μl/well of 2M H₂SO₄. Reactive clones were picked for further analysis. Isotyping of hybridoma supernatants was performed by antigen-dependent ELISA. Briefly, wells were coated with 50 μl of human MCP-1 (5 μg/ml) for 1 hour at 37° C. Wells were washed 4 times and blocked with PBS/1% BSA. Isotyping of hybridoma supernatants was then performed using a mouse immunoglobulin screening/isotyping kit (Zymed Laboratories, San Francisco, —CA) as recommended by the manufacturer.

Test [2] concerns the target human Gcp-2 (human, UniProt P80162 38-114, limits assumed). The test can be described thus: ELISA, supernatant. On the procedure:
as §1
Background: In an ELISA, binding on a coated surface is turned into a signal by an enzyme label.

The target in test [3] is T2, human DC-CK (human, UniProt P55774 21-89).
T2 sequence (looked up): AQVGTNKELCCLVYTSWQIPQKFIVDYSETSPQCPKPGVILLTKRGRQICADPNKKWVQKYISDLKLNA
Nature of the test: ELISA, supernatant. On the procedure:
as §1

Test [4] deals with T3, human MCP-4 (human, UniProt Q99616 24-98, limits assumed).
T3 construct: also called hMCP-4
The test can be described thus: ELISA, purified mAb. On the procedure:
(§2) ELISA specificity assays were performed using purified monoclonal antibodies to confirm the binding specificities of the supernatant MCP-specific monoclonal antibodies described above. Antibodies were purified by Protein A affinity column chromatography, according to standard methods known in the art.
(§3) ELISA was performed as previously described in Example 1. Briefly, MaxiSorp 384 well plates were coated with 15-20 μl antigen in PBS. Recombinant purified human antigens included: MCP-1, MCP-2, MCP-3, MCP-4, IL-8, eotaxin, murine MCP-1 (JE), murine MCP-3, murine MCP-5, and rat MCP-1. All antigens, including MCP-3, were immobilized. Plates were washed and purified monoclonal antibody (10 μg/ml) was added to each well and incubated for 1 hour at room temperature. Plates were washed and wells were incubated with 20 μl/well of a 1:25,000 dilution of goat anti-mouse IgG peroxidase conjugate (Jackson Catalog Number 515-036-003). Plates were incubated for 1 hour at room temperature, washed, and 20 μl/well of substrate (, tetramethylbenzidine, Jackson, Catalog Number 515-036-062) was added. Reaction was allowed to proceed and stopped by addition of 20 μl/well of 2M H₂SO₄. Antibodies 1A1 bound specifically to hMCP-1, hMCP-2, hMCP-3, and mMCP-1. Antibodies 11K2, 4N4, 5A13, 6D21, 615, and 7H1 bound specifically to hMCP-1, hMCP-2, hMCP-3, mMCP-1, mMCP-3, and mMCP-5.

Test [5] addresses T4, human IL-8 (human, UniProt P10145 28-99, limits assumed).
T4 construct: also called hIL8
The test can be described thus: ELISA, purified mAb. On the procedure: as §2, §3

Test [6] addresses T5, human eotaxin (human, UniProt P51671 24-97).
T5 construct: also called hEotaxin
The test can be described thus: ELISA, purified mAb. On the procedure: as §2, §3

B1: monoclonal antibody 4N4 (antibody, mouse IgG1, V domains shown)
VH: EVQLQQSGAELVKAGASVKLSCPASGLNIKDTYMHWVKQRPEQGLEWIGRIDPANGNTKFDPKFQGKATITADTSSNTAYLQLSSLTSEDTAVYYCARGVFGFFDYWGQGTTLTVSS
VL: DIQMTQSSSSFSVSLGDRVTITCKATEDIYNRLAWYQQKPGSAPRLLISGATSLETGVPSRFSGSGSGKDYTLSITSLQTEDVATYYCQQFWSAPYTFGGGTKLEIK
notes: mouse IgG1; also called 4N4.1
B1: the binding result is recorded as “no binding” in test [1]; “no binding” in test [2]; “no binding” in test [3]; “no binding (tested: 10 µg/ml)” in test [4]; “no binding (tested: 10 µg/ml)” in test [5]; “no binding (tested: 10 µg/ml)” in test [6].

B2: monoclonal antibody 7H1 (antibody, mouse IgG1, V domains shown)
VH: B1 VH
VL: B1 VL
notes: mouse IgG1; also called 7H1.1
Regarding B2, the binding result in test [1] is given as “no binding”; in test [2] it was “no binding”; in test [3] it was “no binding”; in test [4] it was “no binding (tested: 10 µg/ml)”; in test [5] it was “no binding (tested: 10 µg/ml)”; in test [6] it was “no binding (tested: 10 µg/ml)”.

B3: monoclonal antibody 5A13 (antibody, mouse IgG1, V domains shown)
VH: B1 VH
VL: B1 VL
notes: mouse IgG1; also called 5A13.1
In the case of B3, the binding result is on record as “no binding” in test [1]; “no binding” in test [2]; “no binding” in test [3]; “no binding (tested: 10 µg/ml)” in test [4]; “no binding (tested: 10 µg/ml)” in test [5]; “no binding (tested: 10 µg/ml)” in test [6].

B4: monoclonal antibody 6I5 (antibody, mouse IgG1, V domains shown)
VH: B1 VH
VL: B1 VL
notes: mouse IgG1; also called 6I5.1; 615
B4: the binding result in test [1] is recorded as “no binding”; in test [2] it was “no binding”; in test [3] it was “no binding”; in test [4] it was “no binding (tested: 10 µg/ml)”; in test [5], “no binding (tested: 10 µg/ml)”; in test [6] it was “no binding (tested: 10 µg/ml)”.

B5: monoclonal antibody 6D21 (antibody, mouse IgG1, V domains shown)
VH: B1 VH
VL: B1 VL
notes: mouse IgG1; also called 6D21.1
Regarding B5, the binding result was “no binding” in test [1]; “no binding” in test [2]; “no binding” in test [3]; “no binding (tested: 10 µg/ml)” in test [4]; “no binding (tested: 10 µg/ml)” in test [5]; “no binding (tested: 10 µg/ml)” in test [6].
